Assay results from the Immune Epitope Database (IEDB).

Key:
[1] = biological target: HLA-A*03:01; assay: IEDB peptide-MHC binding, purified MHC/competitive/fluorescence; filed as Kd, often an IC50 or EC50 that approximates it; ≥ and ≤ were set here for values at or beyond the usual limits of such assays
[2] = biological target: HLA-A*24:02; assay: IEDB peptide-MHC binding, purified MHC/competitive/fluorescence; ≥ and ≤ were set here for values at or beyond the usual limits of such assays
[3] = biological target: HLA-A*01:01; assay: IEDB peptide-MHC binding, purified MHC/direct/fluorescence; filed as Kd, often an IC50 or EC50 that approximates it; ≥ and ≤ were set here for values at or beyond the usual limits of such assays
[4] = biological target: HLA-A*03:01; assay: as above
[5] = biological target: HLA-B*07:02; assay: as above
[6] = biological target: HLA-B*08:01; assay: as above
[7] = biological target: HLA-B*18:01; assay: as above
[8] = biological target: HLA-B*27:05; assay: as above
[9] = biological target: HLA-B*40:01; assay: as above
[10] = biological target: HLA-B*44:02; assay: as above
[11] = biological target: HLA-B*46:01; assay: as above
[12] = biological target: HLA-B*48:01; assay: as above
[13] = biological target: HLA-B*57:01; assay: as above
[14] = biological target: HLA-B*58:01; assay: as above
[15] = biological target: HLA-B*46:01; assay: IEDB peptide-MHC binding, purified MHC/competitive/fluorescence; filed as Kd, often an IC50 or EC50 that approximates it; ≥ and ≤ were set here for values at or beyond the usual limits of such assays; details: source organism: Yellow fever virus
[16] = biological target: HLA-B*08:02; assay: IEDB peptide-MHC binding, purified MHC/direct/fluorescence; filed as Kd, often an IC50 or EC50 that approximates it; ≥ and ≤ were set here for values at or beyond the usual limits of such assays
[17] = biological target: HLA-A*11:01; assay: as above
[18] = biological target: HLA-A*31:01; assay: as above
[19] = biological target: HLA-A*69:01; assay: as above
[20] = biological target: HLA-A*02:01; assay: as above
[21] = biological target: HLA-A*24:03; assay: as above
[22] = biological target: HLA-A*26:01; assay: as above
[23] = biological target: HLA-B*15:01; assay: as above
[24] = biological target: HLA-A*02:01; assay: IEDB peptide-MHC binding, purified MHC/competitive/fluorescence; ≥ and ≤ were set here for values at or beyond the usual limits of such assays
[25] = source organism: Zaire ebolavirus
[26] = source organism: Mammarenavirus lassaense
[27] = source organism: Yersinia pestis
[28] = source organism: Yersinia pestis CA88-4125
[29] = source organism: Influenza A virus (A/tiger/Thailand/CU-T6/04(H5N1))
[30] = source organism: Influenza A virus(A/swine/Shandong/fZC/2003(H9N2))
[31] = source organism: Escherichia coli O157:H7
[32] = source organism: Escherichia coli
[33] = source organism: Sudan ebolavirus
[34] = source organism: Giardia lamblia ATCC 50803
[35] = source organism: Vaccinia virus WR
[36] = source organism: Giardia intestinalis

For RIHGLGFCY, the Kd ([1]; source organism: Shigella boydii CDC 3083-94) was 0.608 µM.
In the case of AVKYLEGHG, the IC50 [2, 25] is reported as ≥ 117 µM.
For RTKSISSR, the Kd ([1]; source organism: Influenza A virus (A/swine/Quebec/192/81(H1N1))) was ≥ 20 µM.
In the case of SNSVAQARF, the IC50 [2, 25] is reported as ≥ 83.6 µM.
ILNHKFCNL was tested, and the Kd [3, 26] was ≥ 20 µM, the Kd [4, 26] was ≥ 20 µM and the Kd [5, 26] was ≥ 20 µM. The Kd [6, 26] was 0.142 µM, the Kd [7, 26] was ≥ 20 µM and the Kd [8, 26] was ≥ 20 µM. For the same sequence, the Kd [9, 26] was ≥ 20 µM, the Kd [10, 26] was ≥ 20 µM and the Kd [11, 26] was ≥ 20 µM. For the same sequence, the Kd [12, 26] was ≥ 20 µM, the Kd [13, 26] was ≥ 20 µM and the Kd [14, 26] was ≥ 20 µM.
Work on WFYDNDNPY yielded a Kd [15] of 1.17 µM.
With KKKLRPRWL the Kd ([16]; source organism: dengue virus type 4) was ≥ 20 µM.
SGSTSPRML was tested, and the IC50 [2, 25] was ≥ 188 µM.
For QYQQLREAA, the IC50 [2, 25] was ≥ 73.9 µM.
QLKSRAAVL was tested, and the Kd [3, 27] was ≥ 20 µM, the Kd [4, 27] was ≥ 20 µM and the Kd [17, 27] was ≥ 20 µM. The Kd [18, 27] was ≥ 20 µM, the Kd [19, 27] was ≥ 20 µM and the Kd [6, 28] was 0.034 µM. For the same sequence, the Kd [16, 28] was 0.948 µM, the Kd [7, 27] was ≥ 20 µM and the Kd [8, 27] was ≥ 20 µM. For the same sequence, the Kd [9, 27] was ≥ 20 µM, the Kd [10, 27] was ≥ 20 µM and the Kd [11, 27] was ≥ 20 µM. For the same sequence, the Kd [13, 27] was ≥ 20 µM and the Kd [14, 27] was ≥ 20 µM.
Sequence MTATLEDDR has an IC50 ([2]; source organism: Variola virus) of 14.6 µM.
In the case of MYRHILRSQ, the IC50 [2, 25] is reported as 56 µM.
Sequence IASMRRNYF has a Kd ([6]; source organism: Influenza A virus (A/camel/Mongolia/1982(H1N1))) of 0.401 µM and a Kd ([16]; source organism: Influenza A virus (A/Taiwan/2/2006(H1N1))) of 2.23 µM.
With EYSKDSRNK the IC50 ([2]; source organism: Vaccinia virus) was ≥ 284 µM.
For TYQWIIRNW, the Kd [3, 29] was ≥ 20 µM, the Kd [20, 29] was ≥ 20 µM and the Kd [4, 29] was ≥ 20 µM. For the same sequence, the Kd [17, 29] was ≥ 20 µM, the Kd [21, 29] was 0.0025 µM and the Kd [22, 30] was ≥ 20 µM. For the same sequence, the Kd [18, 29] was ≥ 20 µM, the Kd [19, 29] was ≥ 20 µM and the Kd [5, 29] was ≥ 20 µM. For the same sequence, the Kd [6, 29] was ≥ 20 µM, the Kd [16, 30] was ≥ 20 µM and the Kd [23, 29] was ≥ 20 µM. For the same sequence, the Kd [8, 29] was ≥ 20 µM, the Kd [9, 29] was ≥ 20 µM and the Kd [10, 29] was ≥ 20 µM. The Kd [11, 29] was ≥ 20 µM and the Kd [14, 29] was ≥ 10 µM.
With GLKRGGVLL the Kd [3, 31] was ≥ 20 µM, the Kd [20, 32] was 2.05 µM and the Kd [4, 31] was ≥ 20 µM. The Kd [17, 31] was ≥ 20 µM, the Kd [21, 32] was ≥ 20 µM and the Kd [22, 31] was ≥ 20 µM. For the same sequence, the Kd [18, 31] was ≥ 20 µM, the Kd [19, 31] was ≥ 20 µM and the Kd [5, 32] was 8.28 µM. For the same sequence, the Kd [6, 31] was ≥ 20 µM, the Kd [23, 32] was 0.919 µM and the Kd [8, 31] was ≥ 20 µM. The Kd [9, 31] was ≥ 20 µM, the Kd [10, 31] was ≥ 20 µM and the Kd [14, 31] was ≥ 20 µM.
Sequence HQDNLDTVI has a Kd ([12]; source organism: Mycobacterium tuberculosis C) of 9.15 µM.
In the case of ADIGEWAFW, the IC50 [2, 33] is reported as 19.4 µM.
LMHNQNALV was tested, and the IC50 [24, 33] was 1.16 µM and the IC50 [2, 33] was ≥ 87 µM.
Sequence RVSSFIRGKK has a Kd ([1]; source organism: Influenza A virus (A/swine/Italy/2/1979(H1N1))) of 0.0025 µM.
For GMLSSLHTL, the Kd [3, 34] was ≥ 20 µM, the Kd [20, 34] was 0.0187 µM and the Kd [4, 34] was ≥ 20 µM. For the same sequence, the Kd [17, 34] was ≥ 20 µM, the Kd [21, 34] was 0.215 µM and the Kd [22, 34] was ≥ 20 µM. For the same sequence, the Kd [18, 34] was ≥ 20 µM, the Kd [19, 34] was ≥ 20 µM and the Kd [23, 34] was 0.255 µM. The Kd [8, 34] was 2.7 µM, the Kd [9, 34] was ≥ 20 µM and the Kd [10, 34] was ≥ 20 µM. It also gave a Kd [14, 34] of 5.05 µM.
For RKKLKPRWL, the Kd ([16]; source organism: Dengue virus 2 Thailand/16681/84) was ≥ 20 µM.
With AKCIEYVTL the IC50 ([2]; source organism: Vaccinia virus Copenhagen) was ≥ 172 µM.
With KYVDYMSSL the IC50 ([2]; source organism: West Nile virus) was 0.507 µM.
KLSSEQLSH showed a Kd [1, 34] of 0.0594 µM.
With KRSVMLIGI the IC50 [2, 35] was 9.38 µM.
EILNTIQFM was tested, and the IC50 [24, 35] was 7.58 µM and the IC50 [2, 35] was ≥ 111 µM.
RMKWMMAMR gave a Kd ([1]; source organism: Influenza A virus (A/chicken/Fujian/25/00(H9N2))) of 0.044 µM.
For FQWAIQDGI, the Kd ([12]; source organism: Cryptosporidium parvum Iowa II) was 0.082 µM.
GPRRAAWRI was tested, and the Kd [3, 36] was ≥ 20 µM, the Kd [20, 36] was ≥ 20 µM and the Kd [4, 36] was ≥ 20 µM. The Kd [17, 36] was ≥ 20 µM, the Kd [21, 34] was ≥ 20 µM and the Kd [22, 36] was ≥ 20 µM. The Kd [18, 36] was ≥ 20 µM, the Kd [19, 36] was ≥ 20 µM and the Kd [5, 34] was 0.0617 µM. For the same sequence, the Kd [6, 36] was ≥ 20 µM, the Kd [23, 36] was ≥ 20 µM and the Kd [8, 36] was ≥ 20 µM. The Kd [9, 36] was ≥ 20 µM, the Kd [10, 36] was ≥ 20 µM and the Kd [14, 36] was ≥ 20 µM.
Work on RWLGGILPW yielded an IC50 [2, 35] of 0.0111 µM.
